From patent publication US20040197338A1 (published 2004) come the findings set out here.

The experiment deals with T1, P^His (recombinant RSV A2 phosphoprotein (P) with a Histidine tag at its amino terminus, expressed from pETP … (respiratory syncytial virus, A2 strain, UniProt P03421 1-241)).
T1 construct: also called P^His protein; recombinant P protein; not shown: N-terminal Histidine tag from vector pET16b
Nature of the experiment: not described at this place (legend of FIG. 10).

As to KLCGMLLITE [peptide N4.10], the binding result is listed as “binds”.
